Reference: the supplement of paper PMC9233669
This sample holds only a part of the variants without activity.

Tests used:
biotinyl-Ile-oxazolone = assay: self-aminoacylation, catalytic enhancement (BIO) (fold over background); higher = more active; k-Seq, kA / k0A0; sequences stand for … in GGGAAUGGAUCCACAUCUACGAAUUC…UUCACUGCAGACUUGACGAAGCUG
How it was run: (§1)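 Working in 50 μL HEPES/NaCl/KCl/MgCl2/CaCl2 buffer with 5% acetonitrile at pH 6.9–7.0, mutagenized RNA pools (0.43 μM; 21-nt variable region) were reacted with 2–1250 μM of each biotinyl-aminoacyl-oxazolone for 90 minutes at room temperature. Streptavidin capture followed, with quantification by triplicate qPCR and Illumina sequencing. Catalytic enhancement is reported as median kA over the uncatalyzed rate, the low-activity peak of a bimodal Gaussian fit to the data.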

biotinyl-Trp-oxazolone = assay: self-aminoacylation, catalytic enhancement (BWO) (fold over background); higher = more active; k-Seq, kA / k0A0; sequences stand for … in GGGAAUGGAUCCACAUCUACGAAUUC…UUCACUGCAGACUUGACGAAGCUG
How it was run: as §1

biotinyl-Phe-oxazolone = assay: self-aminoacylation, catalytic enhancement (BFO) (fold over background); higher = more active; k-Seq, kA / k0A0; sequences stand for … in GGGAAUGGAUCCACAUCUACGAAUUC…UUCACUGCAGACUUGACGAAGCUG
How it was run: as §1

biotinyl-Val-oxazolone = assay: self-aminoacylation, catalytic enhancement (BVO) (fold over background); higher = more active; k-Seq, kA / k0A0; sequences stand for … in GGGAAUGGAUCCACAUCUACGAAUUC…UUCACUGCAGACUUGACGAAGCUG
How it was run: as §1

biotinyl-Leu-oxazolone = assay: self-aminoacylation, catalytic enhancement (BLO) (fold over background); higher = more active; k-Seq, kA / k0A0; sequences stand for … in GGGAAUGGAUCCACAUCUACGAAUUC…UUCACUGCAGACUUGACGAAGCUG
How it was run: as §1

biotinyl-Met-oxazolone = assay: self-aminoacylation, catalytic enhancement (BMO) (fold over background); higher = more active; k-Seq, kA / k0A0; sequences stand for … in GGGAAUGGAUCCACAUCUACGAAUUC…UUCACUGCAGACUUGACGAAGCUG
How it was run: as §1

Row | Sequence | self-aminoacylation (biotinyl-Ile-oxazolone) | self-aminoacylation (biotinyl-Trp-oxazolone) | self-aminoacylation (biotinyl-Phe-oxazolone) | self-aminoacylation (biotinyl-Val-oxazolone) | self-aminoacylation (biotinyl-Leu-oxazolone) | self-aminoacylation (biotinyl-Met-oxazolone)
1 | CAACACUUCAAACAAUCGGUC [Fam1B.1 aminoacylation ribozyme variant] | 1.36 | 38.2 | 78.2 | 1.38 | 2.11 | 1.84
2 | UUUACACUGGUCAUCGAGUGA [Fam2.1 aminoacylation ribozyme variant] | 3.29 | 7.26 | 23.9 | 3 | 5.04 | 5.97
3 | CCACCCUUCCAGCAAUCGGUC [Fam1B.1 aminoacylation ribozyme variant] | 1.41 | 1.51 | 1.15 | 1.94 | 1.04 | 1.02
4 | AAGUGUGCUAAUAGUCGCUAG [Fam3.1 aminoacylation ribozyme variant] | 1.23 | 0.788 | 0.823 | 0.925 | 0.893 | 0.976
5 | AAGUUUGGUACUAGUCGCAAG [Fam3.1 aminoacylation ribozyme variant] | 1.66 | 1.73 | 2.39 | 1.7 | 1.57 | 2.03
6 | AUUUCCCUGGUCAGCGAGUGA [Fam2.1 aminoacylation ribozyme variant] | 4.15 | 6.86 | 37.4 | 3.85 | 6.54 | 6.28
7 | CCACACUUCAAGCAAGCGGUC [Fam1B.1 aminoacylation ribozyme variant] | 0.87 | 0.62 | 0.769 | 0.961 | 0.785 | 0.791
8 | CCAGACUUCAAGCAAUGGGUC [Fam1B.1 aminoacylation ribozyme variant] | 0.856 | 0.74 | 0.887 | 0.856 | 0.759 | 0.72
9 | ACACACUUUAAGCAAUCGGUC [Fam1B.1 aminoacylation ribozyme variant] | 1.06 | 1.03 | 1.34 | 0.949 | 0.948 | 0.832
10 | CUUCUCCAAACAAUCGGUCUG [Fam1A.1 aminoacylation ribozyme variant] | 0.67 | 0.962 | 1.26 | 0.831 | 0.723 | 0.772
11 | AUUGACGUAGGUCAUCGGGUG [Fam2.2 aminoacylation ribozyme variant] | 2.26 | 4.06 | 30.5 | 3.22 | 3.27 | 4.18
12 | AUUCACCUAGGUCGUCGGGCG [Fam2.2 aminoacylation ribozyme variant] | 3.39 | 2.76 | 15.2 | 3.2 | 4.5 | 2.56
13 | AUUCACAUAGGUAAUCGGGUG [Fam2.2 aminoacylation ribozyme variant] | 2.65 | 4.8 | 34 | 2.6 | 5.2 | 4.85
14 | AUUACCCUGGUCAUCUAGUGG [Fam2.1 aminoacylation ribozyme variant] | 1.3 | 2.08 | 2.7 | 1.48 | 2.32 | 2.14
15 | CCACACCUCAAGCAAUCGGGC [Fam1B.1 aminoacylation ribozyme variant] | 1.86 | 2.11 | 1.92 | 2.33 | 1.71 | 1.49
16 | AAGUUUGCUACGAGUCGCAAG [Fam3.1 aminoacylation ribozyme variant] | 0.656 | 0.978 | 1.05 | 0.876 | 0.671 | 0.922
17 | AUUCGCCGAGGUCAUCGGGUG [Fam2.2 aminoacylation ribozyme variant] | 6.76 | 9.29 | 80.2 | 7.83 | 13.7 | 12.4
18 | AUUCAUCUAGGUCAUCGGUUG [Fam2.2 aminoacylation ribozyme variant] | 1.15 | 1.13 | 1.07 | 1.24 | 1.3 | 1.25
19 | CUACCUCAAACAAUCGGUCAG [Fam1A.1 aminoacylation ribozyme variant] | 0.808 | 0.767 | 1.33 | 0.873 | 1.01 | 1.01
20 | CCACACUUCAAACAAUCGGAC [Fam1B.1 aminoacylation ribozyme variant] | 1.01 | 1.94 | 3.27 | 1 | 0.951 | 0.88
21 | AUUCACCUAGGGCCUCGGGUG [Fam2.2 aminoacylation ribozyme variant] | 2.37 | 3.99 | 20.3 | 2.66 | 3.89 | 3.51
22 | AGUCUCCUAGGUCAUCGGGUG [Fam2.2 aminoacylation ribozyme variant] | 5.63 | 9.36 | 58.7 | 6.91 | 12.9 | 9.95
23 | AUAAACCUGGUCAUCGAGUGA [Fam2.1 aminoacylation ribozyme variant] | 4.13 | 9.62 | 11.4 | 4.1 | 8.44 | 7.78
24 | GCACACUUCAAGCAAGCGGUC [Fam1B.1 aminoacylation ribozyme variant] | 2.42 | 3.01 | 3.91 | 2.54 | 2.06 | 1.93
25 | CCACACUGCAAGCAAGCGGUC [Fam1B.1 aminoacylation ribozyme variant] | 1.34 | 1 | 1.05 | 1.61 | 1.23 | 0.878
26 | GAGUUUGCUAAUAUUCGCAAG [Fam3.1 aminoacylation ribozyme variant] | 2.04 | 1.62 | 1.73 | 1.36 | 1.46 | 1.45
